Laboratory results: patent US20240343781A1 (published 2024)

Tests used:
BM-4831 = experiment: ELISA
GX-Pangolin = experiment: ELISA
Yunnan2011 = experiment: ELISA
WIV1 = experiment: ELISA
Rf1 = experiment: ELISA
SHC014 = experiment: ELISA
RmYN02 = experiment: ELISA
RaTG13 = experiment: ELISA
SARS-CoV = experiment: ELISA
BtKY72 = experiment: ELISA
Rs4081 = experiment: ELISA
SARS-CoV-2 Spike = experiment: SPR
SARS-COV spike trimer = SARS-COV spike trimer (SARS-CoV, UniProt P59594 14-1190); experiment: SPR

B1: 10-40 (antibody, V domains shown)
VH: QLQLQESGPGLVKPSETLSLTCTVSGGSISSSNFYWGWIRQPPGKGLEWIASITYSGRTFYNPSLKSRVAISVDTSKNQFSLKLSSVTAADTAVYYCARTFPSYYDRSGYHYLNYGMDVWGQGTTVTVSS
VL: NFMLTQPHSMSESPGKTVTISCTRSSGSIASNYVQWYQQRPGSSPTTVIYEDNQRPSGVPDRFSGSIDSSSNSASLTISGLKTEDEADYYCQSYDSSSWVFGGGTKLTVL
In the case of B1, the EC50 (BM-4831) is reported as 3 ng/mL, the EC50 (GX-Pangolin) is reported as 4 ng/mL and the EC50 (Yunnan2011) is reported as 37 ng/mL. It also gave an EC50 (WIV1) of 4 ng/mL, an EC50 (Rf1) of 4 ng/mL and an EC50 (SHC014) of 5 ng/mL. The EC50 (RmYN02) was 10 ng/mL, the EC50 (RaTG13) was 3 ng/mL and the EC50 (SARS-CoV) was 8 ng/mL. For the same binder, the EC50 (BtKY72) was 4 ng/mL, the EC50 (Rs4081) was 9 ng/mL and the Kd (SARS-CoV-2 Spike) was 4.52 pM.

B2: engineered monoclonal antibody 10-40 (antibody, V domains shown)
VH: QLQLQESGPGLVKPSETLSLTCTVSGGSISSSNFYWGWIRQPPGKGLEWIASITYSGRTFYNPSLKSRVAISVDTSKNQFSLKLSSVTAADTAVYYCARTFPSYYDRSGYHYLNYGMDVWGQGTTVTVSS
VL: NFMLTQPHSMSESPGKTVTISCTRSSGSIASNYVQWYQQRPGSSPTTVIYEDNQRPSGVPDRFSGSIDSSSNSASLTISGLKTEDEADYYCQSYDSSSWVFGGGTKLTVL
With B2 the Kd (SARS-COV spike trimer) was 2.21 pM.

B3: 10-28 (antibody, V domains shown)
VH: QVQLVESGGGVVQPGRSLRLSCAASGFTFSSYDMHWVRQAPGKGLEWVAVISYDGSSKFYAESVKGRFTISRDNSKNTLYLQMNSLRAEETAVYYCVKDGEQLVPLFDYWGQGTLVTVSS
VL: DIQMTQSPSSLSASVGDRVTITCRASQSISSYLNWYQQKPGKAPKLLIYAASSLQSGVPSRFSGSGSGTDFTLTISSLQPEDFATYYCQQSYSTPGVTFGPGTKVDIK
B3 was tested, and the EC50 (BM-4831) was 2 ng/mL, the EC50 (GX-Pangolin) was 4 ng/mL and the EC50 (Yunnan2011) was 9 ng/mL. It also gave an EC50 (WIV1) of 3 ng/mL, an EC50 (Rf1) of 4 ng/mL and an EC50 (SHC014) of 2 ng/mL. The EC50 (RmYN02) was 6 ng/mL, the EC50 (RaTG13) was 2 ng/mL and the EC50 (SARS-CoV) was 5 ng/mL. For the same binder, the EC50 (BtKY72) was 4 ng/mL, the EC50 (Rs4081) was 7 ng/mL and the Kd (SARS-CoV-2 Spike) was 0.782 pM.

B4: engineered monoclonal antibody 10-28 (antibody, V domains shown)
VH: QVQLVESGGGVVQPGRSLRLSCAASGFTFSSYDMHWVRQAPGKGLEWVAVISYDGSSKFYAESVKGRFTISRDNSKNTLYLQMNSLRAEETAVYYCVKDGEQLVPLFDYWGQGTLVTVSS
VL: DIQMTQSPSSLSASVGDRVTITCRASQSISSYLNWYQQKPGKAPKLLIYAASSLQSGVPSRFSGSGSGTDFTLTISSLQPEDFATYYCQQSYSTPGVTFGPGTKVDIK
Binder B4 has a Kd (SARS-COV spike trimer) of 3.69 pM.

B5: 11-11 (antibody, V domains shown)
VH: QVQLQESGPGLVKPSQTLSLTCTVSGGSISSGGYYWSWIRQHPGKGLEWIGYIYYSGSTYYNPSLKSRVTISVDTSKNQFSLKVSSVTAADTAVYYCASSNYYDGSGYNLLESYGMDVWGQGTSVTVSS
VL: QSVLTQPPSVSGAPGQRVTISCTGSSSNIGAGYDVHWYQQLPGTAPKLLIYGNSNRPSGVPDRFSGSRSGTSASLAITGLQAEDEADYYCQSYDSSLSGSWVFGGGTKVTVL
In the case of B5, the EC50 (BM-4831) is reported as 1500 ng/mL, the EC50 (GX-Pangolin) is reported as > 10000 ng/mL and the EC50 (Yunnan2011) is reported as > 10000 ng/mL. For the same binder, the EC50 (WIV1) was 6 ng/mL, the EC50 (Rf1) was > 10000 ng/mL and the EC50 (SHC014) was 6 ng/mL. For the same binder, the EC50 (RmYN02) was > 10000 ng/mL, the EC50 (RaTG13) was > 10000 ng/mL and the EC50 (SARS-CoV) was 19 ng/mL. For the same binder, the EC50 (BtKY72) was 7 ng/mL, the EC50 (Rs4081) was > 10000 ng/mL and the Kd (SARS-CoV-2 Spike) was 1540 pM.

B6: engineered monoclonal antibody 11-11 (antibody, V domains shown)
VH: QVQLQESGPGLVKPSQTLSLTCTVSGGSISSGGYYWSWIRQHPGKGLEWIGYIYYSGSTYYNPSLKSRVTISVDTSKNQFSLKVSSVTAADTAVYYCASSNYYDGSGYNLLESYGMDVWGQGTSVTVSS
VL: QSVLTQPPSVSGAPGQRVTISCTGSSSNIGAGYDVHWYQQLPGTAPKLLIYGNSNRPSGVPDRFSGSRSGTSASLAITGLQAEDEADYYCQSYDSSLSGSWVFGGGTKVTVL
Work on B6 yielded a Kd (SARS-COV spike trimer) of 4.51 pM.
